In general, stoichiometry N refers to a count of units in the complex or per binding partner.

The assay has as its target SARS-CoV-2 main protease M^pro-C145A (SARS-CoV-2). Kind of assay: cryo-EM structure.

“SARS-CoV-2 main protease M^pro-C145A (enzyme)”: the stoichiometry N worked out at 2.

The record behind these values is PMC10084705.
